Test results published in paper PMC12236752.

Biological target: Avs8A (ECOR07), fused to 6xHis-SUMO (E. coli ECOR07) (UniProt B7LDL1)
Assay: MST

“Basel 21 major capsid protein (natural protein)” was tested, and the Kd was 14 nM.
